The values that follow come from US20230295310A1 (ABCELLERA BIOLOGICS, published 2023).

One test has as its target T1, cynomolgus monkey CD3 (cynomolgus monkey, UniProt Q95LI5 22-198; Q95LI8 22-171; Q95LI7 23-181).
T1 construct: whole, on cells; CD3 on purified cynomolgus monkey CD3 pan T cells; also called cyno CD3; CD3 on cyno primary T cells
Kind of test: flow cytometry, cyno primary T cells. The method, boiled down:
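Binding readout: MFI divided by isotype-control MFI (fold over isotype), positive at ≥10. Cells were stained with 25 nM antibody, 30 min, 4° C, in PBS/2% FBS before flow cytometry.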
On the technique in general: Flow cytometry measures light scatter and fluorescence of single cells or particles in a stream.

Another test has as its target EGFR on HeLa cells (UniProt P00533 25-1210, limits assumed). Kind of test: cell-based or functional assay.

Residue numbers refer to the chain shown, from its start.

T1 sequence (Q95LI5 22-198, chain 1 of 3): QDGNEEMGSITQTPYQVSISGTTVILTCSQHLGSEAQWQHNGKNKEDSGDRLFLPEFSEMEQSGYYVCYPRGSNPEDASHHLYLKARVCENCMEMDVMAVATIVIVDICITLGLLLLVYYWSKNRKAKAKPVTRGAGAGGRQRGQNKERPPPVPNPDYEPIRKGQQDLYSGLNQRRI
T1 sequence (Q95LI8 22-171, chain 2 of 3): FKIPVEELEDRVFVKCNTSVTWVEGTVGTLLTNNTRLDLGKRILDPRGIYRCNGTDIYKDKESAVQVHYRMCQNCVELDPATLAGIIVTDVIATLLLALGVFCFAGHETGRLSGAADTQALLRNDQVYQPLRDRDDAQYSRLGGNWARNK
T1 sequence (Q95LI7 23-181, chain 3 of 3): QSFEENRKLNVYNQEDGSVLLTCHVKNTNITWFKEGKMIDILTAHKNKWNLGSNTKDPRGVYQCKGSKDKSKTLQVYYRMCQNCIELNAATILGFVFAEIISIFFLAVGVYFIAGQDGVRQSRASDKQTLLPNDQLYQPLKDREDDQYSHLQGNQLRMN

B1: mAb 320 (antibody, V domains shown)
VH: QVQLVESGGGVVQPGRSLRLSCAASGFTFRSYGMHWVRQAPGKGLEWVAIIWYDGSKKYYADSVKGRFTISRDNSKNILYLQMNSLRAEDTAVYYCARQEFNWNDGGYYYMDVWGKGTTVTVSS
VL: DIQLTQSPSFLSASVGDRVTITCRASQGISSYLDWCQQKPGKAPKLLIYAASTLQSGVPSRFSGSGSGTEFTLTISSLQPEDFATYYCQQLDNYPPTFGGGTKVEIK
notes: VH and VL only
B1: the binding result with cynomolgus monkey CD3 is reported as “no binding (tested: FOI ≥10 = positive; 25 nM)”.

B2: GOMP001_bsAb_055 (bispecific antibody, human IgG1, kappa, L234A L235A)
heavy 1: QVQLVQSGAEVKKPGASVKVSCKASGYTFTSHWMHWVRKAPGQGLEWIGEFNPSNGRTNYNEEFKSKATMTVDTSTNTAYMELSSLRSEDTAVYYCASRDYDYDGRYFDYWGQGTLVTVSSASTKGPSVFPLAPSSKSTSGGTAALGCLVADYFPEPVTVSWNSGALTSGVHTFPAVLQSSGLYSLSSVVTVPSSSLGTQTYICNVNHKPSNTKVDEKVEPKSCDKTHTCPPCPAPEAAGGPSVFLFPPKPKDTLMISRTPEVTCVVVDVSHEDPEVKFNWYVDGVEVHNAKTKPREEQYNSTYRVVSVLTVLHQDWLNGKEYKCKVSNKALPAPIEKTISKAKGQPREPQVYTLPPSREEMTDNQVSLTCLVKGFYPSDIAVEWESNGQPENNYKTTPPVLMSDGSFFLASKLTVDKSRWQQGNVFSCSVMHEALHNHYTQKSLSLSPG
light 1: RIQMTQSPSSLSASVGDRVTITCSASSSVTYMYWYQDKPGKAPKLLIYDTSNLASGVPSRFSGSGSGTDYTFTISSLQPEDIATYYCQQWSSHIFTFGQGTKVEIKRTVAAPSVFIFPPSDKQLKSGTARVVCLLNNFYPREAKVQWKVDNALQSGNSQESVTEQDSKDSTYSLSSTLTLSKADYEKHKVYACEVTHQGLSSPVTKSFNRGEC
heavy 2: EVNLVESGGGLVQPGRSLRLSCAASGFTFDDYTMHWVRYVPGKGLEWVSNISWNSGSLGYADRVKGRFTISRDNAKDSLYLQMNSLRVEDTALYYCAKDSSGYGHYNSYYMDVWGRGTTVTVSSASTKGPSVFPLAPSSKSTSGGTAALGCLVKDYFPEPVTVSWNSGALTSGVHTFPAVLQSSGLYSLSSVVTVPSSSLGTQTYICNVNHKPSNTKVDKKVEPKSCDKTHTCPPCPAPEAAGGPSVFLFPPKPKDTLMISRTPEVTCVVVDVSHEDPEVKFNWYVDGVEVHNAKTKPREEQYNSTYRVVSVLTVLHQDWLNGKEYKCKVSNKALPAPIEKTISKAKGQPRRPRVYTLPPSREEMTKNQVSLVCLVKGFYPSDIAVEWESNGQPENNYKTTPPVLDSDGSFFLYSVLTVDKSRWQQGNVFSCSVMHEALHNHYTQKSLSLSPG
light 2: DIQMTQSPSSLSASVGDRVTITCRASQSIRNYLNWYQRKPGDAPKVLIYSASSLQSGVPSRFSGSGSGTDFTLTISSLQPEDFASFYCQQTYSTPITFGQGTRLEIKRTVAAPSVFIFPPSDEQLKSGTASVVCLLNNFYPREAKVQWKVDNALQSGNSQESVTEQDSKDSTYSLSSTLTLSKADYEKHKVYACEVTHQGLSSPVTKSFNRGEC
Turning to B2, in the test with EGFR on HeLa cells, the Max killing % turned out to be 78% and the “X… HeLa EC50” value stood at 0.182 nM.

B3: GOMP001_bsAb_056 (bispecific antibody)
heavy 1: EVNLVESGGGLVQPGRSLRLSCAASGFTFDDYTMHWVRKVPGKGLEWVSNISWNSGSLGYADEVKGRFTISRDNAKDSLYLQMNSLRVEDTALYYCAKDSSGYGHYNSYYMDVWGKGTTVTVSSASTKGPSVFPLAPSSKSTSGGTAALGCLVADYFPEPVTVSWNSGALTSGVHTFPAVLQSSGLYSLSSVVTVPSSSLGTQTYICNVNHKPSNTKVDEKVEPKSCDKTHTCPPCPAPEAAGGPSVFLFPPKPKDTLMISRTPEVTCVVVDVSHEDPEVKFNWYVDGVEVHNAKTKPREEQYNSTYRVVSVLTVLHQDWLNGKEYKCKVSNKALPAPIEKTISKAKGQPREPQVYTLPPSREEMTDNQVSLTCLVKGFYPSDIAVEWESNGQPENNYKTTPPVLMSDGSFFLASKLTVDKSRWQQGNVFSCSVMHEALHNHYTQKSLSLSPG
light 1: B2 light 2 with D1R, R38D, D42K, E123K, S131R
heavy 2: QVQLVQSGAEVKKPGASVKVSCKASGYTFTSHWMHWVRYAPGQGLEWIGEFNPSNGRTNYNEKFKSKATMTVDTSTNTAYMELSSLRSEDTAVYYCASRDYDYDGRYFDYWGRGTLVTVSSASTKGPSVFPLAPSSKSTSGGTAALGCLVKDYFPEPVTVSWNSGALTSGVHTFPAVLQSSGLYSLSSVVTVPSSSLGTQTYICNVNHKPSNTKVDKKVEPKSCDKTHTCPPCPAPEAAGGPSVFLFPPKPKDTLMISRTPEVTCVVVDVSHEDPEVKFNWYVDGVEVHNAKTKPREEQYNSTYRVVSVLTVLHQDWLNGKEYKCKVSNKALPAPIEKTISKAKGQPRRPRVYTLPPSREEMTKNQVSLVCLVKGFYPSDIAVEWESNGQPENNYKTTPPVLDSDGSFFLYSVLTVDKSRWQQGNVFSCSVMHEALHNHYTQKSLSLSPG
light 2: B2 light 1 with R1D, D37R, K41D, K122E, R130S
For the molecule B3, in the test with EGFR on HeLa cells, the Max killing % is 96.3% and the “X… HeLa EC50” value was found to be 0.0135 nM.

B4: mAb 314 (antibody, V domains shown)
VH: EVQLLESGGGLVQPGGSLRLSCAASGFTFSSYAMSWVRQAPGKGLEWVSVISGSGGNKNYADSVKGRFTISRDNSKNTLYLQMNSLRAEDTAVYYCAKKFSYYYYYMDVWGKGTTVTVSS
VL: SYELTQPLSVSVALGQTARITCGGNNIGSKDVHWYQQKPGQAPVLVIYRDSNRPSGIPERFSGSNSGNTATLTISRAQAGDEADYYCQVWDSRTAVFGGGTQLTAL
notes: VH and VL only
Take B4: in the test with cynomolgus monkey CD3, the binding result was “no binding (tested: FOI ≥10 = positive; 25 nM)”.

B5: mAb 307 (antibody, V domains shown)
VH: EVHLLESGGGMVQPGGSRRLSCAASGFSFRNSAMSWVRQAPGKGLEWVSVIDGRGTTSNYADSVKGRFTISRDNSKNTLYLQMNSLRAEDTAVYYCAKKYSYYYYYMDVWGKGTTVTVSS
VL: B4 VL with Q102H
notes: VH and VL only
In the case of B5, the binding result with cynomolgus monkey CD3 is recorded as “no binding (tested: FOI ≥10 = positive; 25 nM)”.

B6: mAb 308 (antibody, V domains shown)
VH: EVQLLESGGGSVQPGGSLRLSCAASGFTFSSYAMNWVRQAPGKGLEWISIISGGRRTGITYYAASVKGRFTISRDNSKNTLYLQMNSLRAEDTAVYYCAKMYNYYYYYIDVWGKGTTVTVSS
VL: B4 VL with R93N
notes: VH and VL only
Take B6: in the test with cynomolgus monkey CD3, the binding result was “no binding (tested: FOI ≥10 = positive; 25 nM)”.

B7: mAb 302 (antibody, V domains shown)
VH: EGQLLESGGGLVQPGGSLRLSCAASGFTFSRYAMSWIRQAPGKGLEWVSVINGSGGDKNYADSVRGRFTISRDNSKNSLYLLMNGLRVEDTAIYFCAKKFSYYYYYMDVWGKGTTVTVSS
VL: B4 VL with S29G
notes: VH and VL only
With B7, the binding result with cynomolgus monkey CD3 was “no binding (tested: FOI ≥10 = positive; 25 nM)”.

B8: mAb 293 (antibody, V domains shown)
VH: EVQLLESGGDLVQPGGSLRLSCAASGFTFSRNAVSWVRQAPGRGLEWVSTISGRGDKTNYVDSVKGRFTISRDNSKNTLYLQMNSLRAEDTAVYYCTKMFSYYYYYMDVWGKGTTVTVSS
VL: B4 VL with R93S
notes: VH and VL only
As for B8, in the test with cynomolgus monkey CD3, the binding result is reported as “no binding (tested: FOI ≥10 = positive; 25 nM)”.

B9: mAb 317 (antibody, V domains shown)
VH: B4 VH with Y32F, S54N, G56D, N57K, F100Y
VL: B4 VL
notes: VH and VL only
For the molecule B9, in the test with cynomolgus monkey CD3, the binding result is given as “no binding (tested: FOI ≥10 = positive; 25 nM)”.

B10: mAb 295 (antibody, V domains shown)
VH: B4 VH with F27I, V50T, S54N, N57T, K58L, N59Y, A61T, F100Y
VL: B4 VL with D31N, R93S
notes: VH and VL only
On to B10, for which the binding result with cynomolgus monkey CD3 is on record as “no binding (tested: FOI ≥10 = positive; 25 nM)”.

B11: mAb 298 (antibody, V domains shown)
VH: B7 VH with R65K
VL: B4 VL with S29G
notes: VH and VL only
Turning to B11, the binding result with cynomolgus monkey CD3 is reported as “no binding (tested: FOI ≥10 = positive; 25 nM)”.

B12: mAb 309 (antibody, V domains shown)
VH: B4 VH with V2L, S54N, Y60H, F100Y
VL: B4 VL
notes: VH and VL only
On to B12, for which the binding result in the test with cynomolgus monkey CD3 was “no binding (tested: FOI ≥10 = positive; 25 nM)”.

B13: mAb 315 (antibody, V domains shown)
VH: B4 VH with L18R, S52N, G53T, S54R, G56D, N57S, K58T, N59S, F100Y
VL: B4 VL
notes: VH and VL only
Regarding B13, the binding result with cynomolgus monkey CD3 is on record as “no binding (tested: FOI ≥10 = positive; 25 nM)”.

B14: mAb 305 (antibody, V domains shown)
VH: B4 VH with T28S, Y32F, M34L, S54N, F100Y
VL: B4 VL with S29G, T94A
notes: VH and VL only
As for B14, the binding result in the test with cynomolgus monkey CD3 was “no binding (tested: FOI ≥10 = positive; 25 nM)”.

B15: mAb 291 (antibody, V domains shown)
VH: B4 VH with L18R, M34L, S52N, G53T, S54R, G56D, N57S, K58T, N59S, F100Y
VL: B4 VL
notes: VH and VL only
As to B15, the binding result in the test with cynomolgus monkey CD3 was “no binding (tested: FOI ≥10 = positive; 25 nM)”.

B16: mAb 313 (antibody, V domains shown)
VH: B4 VH with V50A, S52T, G56R, N57T, K58T, N59Y, Y60F, A61V
VL: B4 VL with S92R, R93K, T94I
notes: VH and VL only
Consider B16, for which the binding result with cynomolgus monkey CD3 is on record as “no binding (tested: FOI ≥10 = positive; 25 nM)”.

B17: mAb 299 (antibody, V domains shown)
VH: B4 VH with L18R, S30R, G53I, S54R, G56D, N57S, K58T, N59S, F100Y
VL: B4 VL
notes: VH and VL only
For B17, in the test with cynomolgus monkey CD3, the binding result is reported as “no binding (tested: FOI ≥10 = positive; 25 nM)”.
